Values quoted from earlier work as cited in article PMC10581250.

Tests used:
[1] = target: KGD (Mycobacterium smegmatis) (UniProt A1KI36)
[2] = target: OdhA (E1oE2o subunit) (Corynebacterium glutamicum) (UniProt Q8NRC3)
[3] = target: OdhA (Corynebacterium glutamicum) (UniProt Q8NRC3); assay: surface plasmon resonance

UniProt A1KI36, sequence (A1KI36 whole entry): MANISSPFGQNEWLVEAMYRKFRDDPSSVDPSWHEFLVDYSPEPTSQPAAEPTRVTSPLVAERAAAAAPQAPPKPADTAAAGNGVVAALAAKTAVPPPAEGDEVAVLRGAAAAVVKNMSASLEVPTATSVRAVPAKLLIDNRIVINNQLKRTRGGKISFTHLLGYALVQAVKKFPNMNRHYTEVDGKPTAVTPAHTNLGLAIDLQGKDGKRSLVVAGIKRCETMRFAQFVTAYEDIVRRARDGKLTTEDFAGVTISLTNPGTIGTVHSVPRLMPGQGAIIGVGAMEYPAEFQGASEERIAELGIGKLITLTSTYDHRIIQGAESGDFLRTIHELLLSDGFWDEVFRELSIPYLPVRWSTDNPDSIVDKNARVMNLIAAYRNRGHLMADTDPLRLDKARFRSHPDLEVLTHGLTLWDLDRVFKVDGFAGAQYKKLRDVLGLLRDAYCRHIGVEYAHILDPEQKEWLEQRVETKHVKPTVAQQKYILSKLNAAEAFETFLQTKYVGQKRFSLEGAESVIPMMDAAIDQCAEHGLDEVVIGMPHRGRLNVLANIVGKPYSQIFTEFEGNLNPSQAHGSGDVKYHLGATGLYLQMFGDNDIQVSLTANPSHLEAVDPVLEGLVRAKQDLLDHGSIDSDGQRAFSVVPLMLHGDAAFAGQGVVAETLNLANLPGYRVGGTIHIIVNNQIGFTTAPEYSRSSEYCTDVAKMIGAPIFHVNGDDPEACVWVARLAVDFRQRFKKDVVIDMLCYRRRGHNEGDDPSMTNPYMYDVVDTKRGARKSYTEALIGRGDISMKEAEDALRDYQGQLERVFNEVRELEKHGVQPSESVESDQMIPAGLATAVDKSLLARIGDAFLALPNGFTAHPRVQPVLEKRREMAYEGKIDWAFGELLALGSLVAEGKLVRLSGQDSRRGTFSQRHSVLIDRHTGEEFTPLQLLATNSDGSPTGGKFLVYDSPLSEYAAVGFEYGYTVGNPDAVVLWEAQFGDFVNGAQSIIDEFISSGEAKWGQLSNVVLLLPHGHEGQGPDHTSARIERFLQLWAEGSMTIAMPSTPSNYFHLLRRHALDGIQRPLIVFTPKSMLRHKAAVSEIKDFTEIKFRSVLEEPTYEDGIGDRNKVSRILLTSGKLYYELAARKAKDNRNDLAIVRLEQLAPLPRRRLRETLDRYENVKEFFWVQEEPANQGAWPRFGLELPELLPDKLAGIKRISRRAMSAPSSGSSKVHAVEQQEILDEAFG

| Substance | Kd [1] [nM] | Ki [2] [nM] | Kd [3] [nM] |
| --- | --- | --- | --- |
| GarA (from UniProt P9WJA9) | 1920 |  |  |
| OdhI (from UniProt Q8NQJ3) |  | 2.4 | 13.8 |
